Data published in paper PMC12715529, “Functional D- and L‑Naphthalenediimide-Peptides: Microwave-Driven Synthesis, Supramolecular Aggregation, and Multiphoton Fluorescence Lifetime Imaging Microscopy in Living Cells” (ACS Bio & Med Chem Au, 2025).

Tests used:
[1] = MTT and crystal violet cell viability assays; type: cell-based; conditions: human, PC-3 cells, MTT and crystal violet assays, up to 72 h observation, read-out: IC50 (cytotoxicity)
Method: (§1) Subsequently, cells were washed three times with PBS, and 3-(4,5-dimethylthiazol-2-yl)-2,5- diphenyltetrazolium bromide (MTT) was added (0.5 mg/mL in serum-free medium (SFM)), followed by a 2 h incubation. After aspiration to remove the serum-free medium, 100 μL of DMSO was added to solubilize the precipitated formazan species, and 96-well plates were read by an ELISA plate reader, Molecular Devices Versa Max (BN02877). The absorption wavelength was 570 nm, and a 690 nm wavelength was used as a reference.

[2] = tested on: cancerous cell lines (PC-3); test: MTT and crystal violet cell viability assays; type: cell-based; conditions: at concentrations used for imaging, over 72 h of observations
Method: as §1

[3] = Two-photon TCSPC point decays in solution (aggregation behaviour); type: physicochemical; conditions: for a1 (amplitude of τ1) / a2 (amplitude of τ2) / τ2 (long-lifetime component) / τ1 (short-lifetime component): two-photon TCSPC 910 nm
Description: Prior to the cellular studies by FLIM, lifetime distribution decays of probes 3 (both enantiomers), 4 (both enantiomers), and L -6 were studied by TCSPC in different concentrations and solvent systems. […] The main fluorescence lifetime parameters obtained by TCSPC in the solution phase are summarized in Table , and further details are given in Figures S105–S133 and Tables S2–S4. The goodness of fit of the data points obtained is represented by the Chi–square parameter, χ^2; τ1 is the short-lifetime component; τ2 is the long-lifetime component; and the parameters a1 and a2 represent the amplitude of the components.

[4] = FE-SEM and Airyscan confocal imaging of dried films (aggregation morphology); type: physicochemical; conditions: dried powder or freeze-dried 1 mg/mL MeCN/H2O (1:1) or DMSO solutions
Method: To further investigate the aggregation behavior, we examined the surface morphologies of the isolated conjugates in the solid state at the micrometer scale using field emission scanning electron microscopy (FE-SEM). This analysis aimed to determine whether the aggregation properties of these peptide-based compounds influence their fluorescence emission. The FE SEM micrographs of the D- and L-enantiomers of 3 and 4 were recorded from dried powder after purification or after freeze-drying of 1 mg/mL solutions deposited in either MeCN/H2O (1:1) or DMSO solutions. […] Confocal laser scanning fluorescence microscopy was performed for the thin films deposited on glass-bottomed borosilicate slides using imaging Petri dishes. Micrographs were acquired using Airyscan detection for L -3 (a1–e1), L -4 (a2–e2), D -3 (a3–e3), D -4 (a4–d4), and L -6 (a5–d5) where these images were recorded following overnight freeze-drying of films deposited from DMSO (Figures and S67). […] This is consistent with our observations from solution excitation–emission maps (Figures and S57–S63) and further points to the overall ability of these aggregates to show fluorescence emission due to possible stacking and excited-state electron and energy dynamics. […] Specifically, emission was detected in the blue (λem = 420–480 nm), green (λem = 495–550 nm), and red (λem = 555–620 nm) channels. […]

[5] = tested on: PC-3 cells; conditions: 48 h
Method: After splitting the cells, cells (3 × 10^3 cells per well) were seeded on a sterile 96-well plate and incubated for 48 h to let the cells adhere to the plates. The compound of interest was subsequently loaded at different concentrations into the wells and incubated for a further 48 h. The concentrations used ranged between 250 μM or 0.01 mg/mL and 1 nM or 1 ng/mL (1% DMSO with compound, 99% RPMI (10% FCS) for PC-3. Subsequently, the medium from the plates was carefully aspirated so as not to disturb the colonies, and the plates were gently washed with PBS. Next, a mixture of methanol/PBS (1:1) was added in a sufficient volume to cover the colonies, and it was left for 15 min. After this time, it was removed, and 100% methanol was added for a further 15 min. The methanol was then removed, and 0.5% crystal violet solution (in 20% methanol and 80% water) was added and left to allow sufficient staining. The crystal violet solution was removed by carefully rinsing the cell plates with an indirect flow of tap water. The plates were inverted and left on the bench at room temperature to dry the water. Methanol (200 μL) was added to each well, and the plate was incubated with its lid on for 20 min at room temperature on a bench rocker with a frequency of 20 oscillations per minute. The 96-well plates were then read with an ELISA plate reader, Molecular Devices Versa Max (BN02877). […]

[6] = molecular target: T1, GRP receptors in PC-3 cells (Homo sapiens, UniProt P30550); test: Blocking experiment with L-[7–13]BBN, confocal imaging; type: cell-based; conditions: PC-3 pre-incubated with 1 mM L-[7–13]BBN, 37 °C, 20 min, washed, then conjugate 20 min
T1 construct: This also supports the targeted uptake directed by the GRP receptors in PC-3 cells; endogenous in cells; host or cells: PC-3 cells (ATCC)
Method: Compound L -6 emits in the green and red channels (500–550 and 570–750 nm, respectively) when excited at 488 nm. […] In addition, the fluorescence emissions in vitro are stronger than the observed fluorescence emission in solution. […] This also supports the targeted uptake directed by the GRP receptors in PC-3 cells interplayed with BODIPY-driven cellular localization. To further probe this observation, a blocking experiment by confocal imaging was conducted (Figures S103–S104), whereby PC-3 cells were first incubated in the presence of a high concentration of L-[7–13]-BBN (1 mM) at 37 °C for 20 min. This peptide is only weakly fluorescent, and on this time scale (and up to 18 h of incubation time), confocal imaging cannot show distinguishable emission, to describe the uptake for L-[7,13]-BBN alone by this method (Figure S87). After the standard 20 min pretreatment time, the cells were washed with PBS and then the serum-free medium (SFM) was replaced. […] In the case of L-6, the observed maximum fluorescence intensity is distributed over the exterior of the cell, with points of aggregation visible around the membrane. […]
Figure S103. […] (D) A comparison of the mean fluorescence intensity estimated from confocal imaging experiments of the standard blocking assays in living PC-3 cells (Figure S103), under 20 min incubation, 37 °C, ex 488 nm. […]

[7] = DMSO, 0.01 mM, double-exponential fit, aggregation indicator

T1 sequence (P30550 whole entry): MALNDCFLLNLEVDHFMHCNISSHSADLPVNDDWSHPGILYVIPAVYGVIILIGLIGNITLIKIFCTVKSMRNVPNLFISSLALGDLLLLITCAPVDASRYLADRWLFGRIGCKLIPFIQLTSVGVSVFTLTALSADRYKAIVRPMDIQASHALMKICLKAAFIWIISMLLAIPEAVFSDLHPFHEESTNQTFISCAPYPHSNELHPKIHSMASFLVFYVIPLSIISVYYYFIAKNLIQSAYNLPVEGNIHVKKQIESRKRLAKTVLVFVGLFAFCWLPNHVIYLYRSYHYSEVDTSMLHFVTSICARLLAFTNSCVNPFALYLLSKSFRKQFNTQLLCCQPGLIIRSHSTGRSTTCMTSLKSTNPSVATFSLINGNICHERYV

| SMILES | IC50 at 48 h [1] [µM] | cytotoxicity in words [2] | a1 (amplitude of τ1) ([3]; DMSO, 0.01 mM) [%] | a2 (amplitude of τ2) ([3]; DMSO, 0.01 mM) [%] | τ2 (long-lifetime component) ([3]; DMSO, 0.01 mM) [ns] | τ1 (short-lifetime component) [3, 7] [ns] | a1 (amplitude of τ1) ([3]; DMSO, 0.1 mM) [%] | a2 (amplitude of τ2) ([3]; DMSO, 0.1 mM) [%] | τ1 (short-lifetime component) ([3]; DMSO, 0.1 mM) [ns] | τ2 (long-lifetime component) ([3]; DMSO, 0.1 mM) [ns] | a1 (amplitude of τ1) ([3]; DMSO, 1 mM) [%] | a2 (amplitude of τ2) ([3]; DMSO, 1 mM) [%] | τ1 (short-lifetime component) ([3]; DMSO, 1 mM) [ns] | τ2 (long-lifetime component) ([3]; DMSO, 1 mM) [ns] | a1 (amplitude of τ1) ([3]; DMSO/H2O (1:1), 0.025 mM) [%] | a2 (amplitude of τ2) ([3]; DMSO/H2O (1:1), 0.025 mM) [%] | a1 (amplitude of τ1) ([3]; DMSO/H2O (1:1), 2.5 mM) [%] | a2 (amplitude of τ2) ([3]; DMSO/H2O (1:1), 2.5 mM) [%] | τ1 (short-lifetime component) ([3]; DMSO/H2O (1:1), 2.5 mM) [ns] | τ2 (long-lifetime component) ([3]; DMSO/H2O (1:1), 2.5 mM) [ns] | also measured |
| --- | --- | --- | --- | --- | --- | --- | --- | --- | --- | --- | --- | --- | --- | --- | --- | --- | --- | --- | --- | --- | --- |
| CC(C)C[C@H](NC(=O)[C@H](Cc1c[nH]cn1)NC(=O)CNC(=O)[C@@H](NC(=O)[C@H](C)NC(=O)[C@H](Cc1c[nH]c2ccccc12)NC(=O)[C@H](CCC(N)=O)NC(=O)[C@H](Cc1ccc(I)cc1)N1C(=O)c2ccc3c4c(ccc(c24)C1=O)C(=O)N([C@@H](Cc1ccc(I)cc1)C(=O)N[C@@H](CCC(N)=O)C(=O)N[C@@H](Cc1c[nH]c2ccccc12)C(=O)N[C@@H](C)C(=O)N[C@H](C(=O)NCC(=O)N[C@@H](Cc1c[nH]cn1)C(=O)N[C@@H](CC(C)C)C(N)=O)C(C)C)C3=O)C(C)C)C(N)=O [L-4] | > 100 | nontoxic | 75 | 25 | 4.76 | 0.51 | 79 | 21 | 0.49 | 5.45 | 77 | 23 | 0.48 | 4.29 | 84 | 16 | 86 | 14 | 0.26 | 4.97 | τ1 (short-lifetime component) ([3]; DMSO/H2O (1:1), 0.025 mM): 0.48 ns; τ2 (long-lifetime component) ([3]; DMSO/H2O (1:1), 0.025 mM): 9.57 ns; a1 (amplitude of τ1) ([3]; DMSO/H2O (1:1), 0.25 mM): 83%; a2 (amplitude of τ2) ([3]; DMSO/H2O (1:1), 0.25 mM): 17%; τ1 (short-lifetime component) ([3]; DMSO/H2O (1:1), 0.25 mM): 0.40 ns; τ2 (long-lifetime component) ([3]; DMSO/H2O (1:1), 0.25 mM): 3.12 ns; aggregate morphology [4]: granular and globular morphology; IC50 [5]: > 100 µM |
| CC1=CC(C)=[N+]2C1=C(c1ccc(C(=O)NCCN3C(=O)c4ccc5c6c(ccc(c46)C3=O)C(=O)N([C@@H](CCC(N)=O)C(=O)N[C@@H](Cc3c[nH]c4ccccc34)C(=O)N[C@@H](C)C(=O)N[C@H](C(=O)NCC(=O)N[C@@H](Cc3c[nH]cn3)C(=O)N[C@@H](CC(C)C)C(N)=O)C(C)C)C5=O)cc1)c1c(C)cc(C)n1[B-]2(F)F [L-6] | > 100 | nontoxic | 68 | 32 | 3.34 | 0.14 | 80 | 20 | 0.14 | 2.64 | 66 | 34 | 0.14 | 1.67 | – | – | 65 | 35 | 0.15 | 2.25 | uptake after pre-blocking with L-[7–13]BBN [6]: significant decrease of the uptake efficiency in pretreated cells; uptake after pre-blocking with L-[7–13]BBN ([6]; listed as L -6): significantly lesser extent than in the nonblocked experiment; τ1 relative to BODIPY-linker precursor 5 ([3]; TCSPC in solution, assigned to self-aggregation): 10 fold lower; τ1 (approximate) ([3]; both DMSO and DMSO/H2O solutions, TCSPC): ~0.1 ns |
| CC(C)C[C@H](NC(=O)[C@H](Cc1c[nH]cn1)NC(=O)CNC(=O)[C@@H](NC(=O)[C@H](C)NC(=O)[C@H](Cc1c[nH]c2ccccc12)NC(=O)[C@H](CCC(N)=O)NC(=O)[C@H](Cc1ccc(I)cc1)N1C(=O)c2ccc3c4c(ccc(c24)C1=O)C(=O)N([C@@H](Cc1ccc(I)cc1)C(=O)ON1C(=O)CCC1=O)C3=O)C(C)C)C(N)=O [L-3] | > 100 | nontoxic | 62 | 38 | 7.35 | 0.84 | 62 | 38 | 0.57 | – | 63 | 37 | 0.38 | 2.54 | 82 | 18 | 77 | 23 | 0.31 | 3.45 | τ1 (short-lifetime component) ([3]; DMSO/H2O (1:1), 0.025 mM): 0.37 ns; τ2 (long-lifetime component) ([3]; DMSO/H2O (1:1), 0.025 mM): 10.01 ns; a1 (amplitude of τ1) ([3]; DMSO/H2O (1:1), 0.25 mM): 81%; a2 (amplitude of τ2) ([3]; DMSO/H2O (1:1), 0.25 mM): 19%; τ1 (short-lifetime component) ([3]; DMSO/H2O (1:1), 0.25 mM): 0.38 ns; τ2 (long-lifetime component) ([3]; DMSO/H2O (1:1), 0.25 mM): 9.87 ns; IC50 [5]: > 100 µM |
